Series [1] deals with the molecule itself. Put plainly: self-assembly into a β-sheet bilayer, FIG. 8.
Series [2] concerns the molecule itself. Put plainly: fibril formation kinetics (self-assembly), FIG. 5A.
Series [3] deals with the molecule itself. Put plainly: fibril formation kinetics (self-assembly), FIG. 5B.

Where no end group is shown, it is not given here.

B1: Aβ(16-22) (amino acid residues 16-22 of SEQ ID NO: 1), CH3CO-KLVFFAE-NH2 (peptide)
peptide: Ac-KLVFFAE-NH2
modifications: also: self-assembles into β-sheets, nanotubes
notes: Assembles with itself into β-sheets, a rectangular bilayer, helical ribbons and nanotubes
Regarding B1, the binding result in series [1] is “binds”.

B2: Aβ(10-21) (amino acid residues 10-21 of SEQ ID NO: 1) (peptide)
peptide: YEVHHQKLVFFA
modifications: not fully specified
notes: Segment of β-amyloid that assembles with itself into fibrils; Many copies stand in the assembly
Take B2: the binding result in series [2] is reported as “binds”.

B3: Aβ(10-21)H13Q (SEQ ID NO: 3) (peptide)
peptide: YEVQHQKLVFFA
notes: Aβ(10-21) with a modified amino acid residue 13 (H13Q)
Regarding B3, the binding result in series [3] is “binds”.

Source of the values: patent US20050164361A1 (published 2005).
